The results in this text go back to US20220332804A1 (CSL INNOVATION, published 2022).

Holding throughout (test): SPR, KD relative to WT C2;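 note: biacore SPR at 37 °C, anti-C2 mAbs captured via immobilised goat anti-human IgG, C2 alanine or serine surface mutants as analytes, 1:1 model fitted, double-referenced sensograms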
(In general: In SPR one partner is held on a chip, and binding of the other changes the refractive index at the surface.)

In one experiment the target is T1, human C2 R519A (human, UniProt P06681 21-752).
T1 sequence: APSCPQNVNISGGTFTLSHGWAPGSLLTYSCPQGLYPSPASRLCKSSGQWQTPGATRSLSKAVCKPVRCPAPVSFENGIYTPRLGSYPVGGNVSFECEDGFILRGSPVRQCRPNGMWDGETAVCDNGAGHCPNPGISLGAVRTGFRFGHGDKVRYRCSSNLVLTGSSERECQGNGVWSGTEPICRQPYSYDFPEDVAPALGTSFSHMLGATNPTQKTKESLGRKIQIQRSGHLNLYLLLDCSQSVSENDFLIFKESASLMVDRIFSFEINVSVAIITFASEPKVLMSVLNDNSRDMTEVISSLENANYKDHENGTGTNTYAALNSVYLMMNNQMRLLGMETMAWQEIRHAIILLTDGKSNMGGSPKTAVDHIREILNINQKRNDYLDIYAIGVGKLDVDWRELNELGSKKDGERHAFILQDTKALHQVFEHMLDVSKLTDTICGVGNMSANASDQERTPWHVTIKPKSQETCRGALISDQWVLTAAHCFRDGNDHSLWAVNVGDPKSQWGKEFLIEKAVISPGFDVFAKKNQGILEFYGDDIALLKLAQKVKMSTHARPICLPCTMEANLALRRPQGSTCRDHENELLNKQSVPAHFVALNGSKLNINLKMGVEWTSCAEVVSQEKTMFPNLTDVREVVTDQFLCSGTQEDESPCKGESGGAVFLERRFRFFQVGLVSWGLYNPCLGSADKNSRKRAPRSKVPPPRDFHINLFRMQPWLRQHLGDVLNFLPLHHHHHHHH

The next experiment addresses T2, human C2 Q447A (human, UniProt P06681 21-752).
T2 sequence: T1 sequence with Q427A, A499R

The target of the next experiment is T3, human C2 K274A (human, UniProt P06681 21-752).
T3 sequence: T1 sequence with K254A, A499R

The next experiment deals with T4, human C2 V448A (human, UniProt P06681 21-752).
T4 sequence: T1 sequence with V428A, A499R

Positions count from the first letter of the chain named.

B1: RF16-226 (antibody, human IgG4 S228P, lambda)
heavy: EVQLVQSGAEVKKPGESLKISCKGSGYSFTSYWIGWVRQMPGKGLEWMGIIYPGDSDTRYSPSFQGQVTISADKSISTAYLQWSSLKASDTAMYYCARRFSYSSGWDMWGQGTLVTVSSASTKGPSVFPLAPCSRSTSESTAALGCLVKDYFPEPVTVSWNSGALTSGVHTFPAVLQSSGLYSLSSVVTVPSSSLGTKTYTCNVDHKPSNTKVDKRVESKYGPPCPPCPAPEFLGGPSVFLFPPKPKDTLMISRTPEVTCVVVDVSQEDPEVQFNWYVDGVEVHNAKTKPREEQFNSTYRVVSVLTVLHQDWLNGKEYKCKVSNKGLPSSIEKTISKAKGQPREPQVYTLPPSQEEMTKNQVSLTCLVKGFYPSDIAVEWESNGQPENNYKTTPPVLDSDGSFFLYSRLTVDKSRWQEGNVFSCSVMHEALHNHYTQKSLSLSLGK
light: SYELTQPPSVSVSPGQTARITCSGDALTSKYVAWYQQKSGLAPLLVIYEDTRRPSGIPAKFSGSSSGSVATLTISGAHGDDEADYYCYSTDASGHQRVFGGGTKLTVLSQPKAAPSVTLFPPSSEELQANKATLVCLISDFYPGAVTVAWKADGSPVKAGVETTKPSKQSNNKYAASSYLSLTPEQWKSHRSYSCQVTHEGSTVEKTVAPTECS
notes: pH-dependent anti-C2 antibody from a phage display library; also called WT
Regarding B1, the Fold diff worked out at 1 fold with human C2 R519A, 1 fold in the experiment with human C2 Q447A, 29 fold with human C2 K274A and 0 fold with human C2 V448A.
